Measured values: PMC3159919 (Structure (London, England : 1993), 2011)
Residue numbers refer to the chain shown, from its start. In names and notes the source's numbering stands.

B1: wild type CCL5 (RANTES) (natural protein, UniProt P13501 24-91, looked up)
chain: SPYSSDTTPCCFAYIARPLPRAHIKEYFYTSGKCSNPAVVFVTRKNRQVCANPEKKWVREYINSLEMS
B2: CCL5 E66S mutant (natural protein, UniProt P13501 24-91, looked up)
chain: B1 chain with E66S

Columns and labels:
[1] = target: the molecule itself; experiment: pulse gradient diffusion NMR + NMR spin relaxation
[2] = target: the molecule itself; experiment: NMR residual dipolar couplings

Protein | stoichiometry N [1] | binding result [2]
B1 | 4 | 
B2 |  | binds
